Measured values: US6413750B1, “(R)-specific alcohol dehydrogenases from lactobacillus with improved catalytic activity using an NAD+ substrate” (Forschungszentrum Jülich GmbH, priority 1998, dated 2002)
“And” between values parts separate entries of the source, which are not always exact repeats. Equal values may be shown once.

Columns and labels:
[1] = Kinetic data for the oxidized coenzyme NADP+ (oxidation of phenylethanol); format: biochemical, Lactobacillus brevis
Method: (§1) In this N-terminal sequence certain basicity-relevant amino acids were exchanged by established genetic engineering devices and the changes in the acceptance of NAD^+ were determined basically with two values, the KM value and the kcat value. The KM value (Michaelis-Menten-constant [Mol/L]) can be considered to be a measure for the affinity of the co-enzyme to the enzyme. Preferably, the KM value is as small as possible. The kcat value (Mol formed product/mol enzyme×sec) is a measure for the conversion, it should be as high as possible. A combined value, which takes both values into consideration is the quotient kcat/KM. This should be preferably≧20 for obtaining an enzyme suitable for preparative purposes.
(§2) The successive changes of the mutated enzymes were proven by the determination of the kinetic parameters for the co-enzyme NAD^+, NAPD^+, NADH and NADPH by means of the corresponding kinetic parameters for the ketone substrate (acetophenone) or, respectively, by the oxidation reaction for the alcohol (phenylethanol). Furthermore, maintenance of the enantioselectivety was examined using the example of reduction of acetophenon. In addition, temperature-optima and stability, pH optima and stability and the iso-electric point were determined and compared with the corresponding data for the non-mutated wild-type enzyme.

[2] = Kinetic data for the oxidized coenzyme NAD+ (oxidation of phenylethanol); format: biochemical, Lactobacillus brevis; settings: for Kcat value / Km: coenzyme NAD+
Method: as §1, §2

[3] = Kinetic data for the reduced coenzyme NADPH (reduction of acetophenone); format: biochemical, Lactobacillus brevis
Method: as §1, §2

[4] = Kinetic data for the reduced coenzyme NADH (reduction of acetophenone); format: biochemical, Lactobacillus brevis
Method: as §1, §2

[5] = Temperature stability (residual activity after incubation at various temperatures); format: physicochemical, Lactobacillus brevis
[6] = Isoelectric point by isoelectric focussing; format: physicochemical, Lactobacillus brevis; settings: pH
Method: The isoelectric point (IP) is determined by isoelectric focussing (IEF) to be at pH 4.28. This is noteworthy particularly in comparison with the mutant 2 (see example 4). With the mutant 2, the IP is determined at 4.65 despite the fact that, in each of the two mutants, the same type of aminoacid (lysine) was exchanged; in mutant 1, it was the lysine-45 (to isoleucine) and in mutant 2, it was the lysine-48 (to methionine).

[7] = Batchwise reduction of acetophenone with coenzyme regeneration, enantioselectivity by gas chromatography; format: biochemical, Lactobacillus brevis
Method: In this case, 960 μl triethanolamine buffer, 50 mM, pH 7.0 with 11 mM acetophenon, 10 μl magnesium chloride (100 mM start solution); 25 μl NADP^+ (10 mM start solution), 9.4μl isopropanol, and 1 U alcohol dehydrogenase were used.

[8] = Temperature optimum of enzyme activity; format: biochemical, Lactobacillus brevis
Method: The optimal temperature was determined for reductive reactions at pH 7.0 with the two coenzymes NADH and NADPH to be 55° C. in both cases. The temperature stability was determined as residual activity after 25 h incubation at various temperatures. At 37° C., still 95% reactivity was obtained; at 42° C. still 34%.

[9] = pH optimum of enzyme activity; format: biochemical, Lactobacillus brevis; settings: for activity at pH 8.0 compared with optimum: oxidative direction
Method: For determining the optimal pH value, the following buffers were used: pH 4.5=Na-acetate; pH 5.0 and 5.5=Na-acetate; pH 6.0 and 6.5=Kpi or MES; pH 7.0 and 7.5=Kpi or TEA; pH 8.0 and 8.6=Tris; pH 9.0=Bicine. All buffers were used in a concentration of 100 mM. For the determination of the reductive reaction 10 mM acetophenon was added. The concentrations of NADP/NAD were each 2 mM. The concentration of NADH/NADPH was each 0.25 mM. For measurement, 970 μl of the respective buffer solution, which already included substrate at the desired concentration, was mixed with 20 μl of the start solution with the desired co-enzyme. The reaction was started with 10 μl enzyme. the dilution factor depended on the activity, it was chosen in the range of 1 to 3 U/ml.

[10] = pH stability (residual activity after incubation at various pH values); format: physicochemical, Lactobacillus brevis
Method: The pH stability is expressed as residual activity after a 25 hour incubation period at various pH values, the same buffers were used as for the determination of the pH optima. 45 μl of the respective buffer were mixed with 5 μl of the enzyme solution and incubated at room temperature. Samples were taken after 30 min, 60 min., 6 hours and 25 hours.

[11] = Standard enzyme test with crude extract (acetophenone reduction / phenyl ethanol oxidation); format: biochemical, Lactobacillus brevis
Method: In the standard enzyme test for reduction of acetophenone, with NADPH 0.032 U/mg (0.318 U/ml, 9.75 mg protein/ml) and with NADH 0.47 U/mg (4.61 U/ml; 9.75 mg protein/ml) were measured. In the reverse reaction (alcohol-oxidation) with phenyl ethanol, with NAD^+ a specific activity of 1.1 U/mg (10.8 U/ml); 9.75 protein/ml) were measured.

[12] = oxidation of phenyl ethanol with NAD+
[13] = reduction of acetophenone with NADH
[14] = reduction of acetophenone with NADPH

For “mutant 1/1: L. brevis ADH mutant with exchanges A9G, R38L, K45M (SEQ ID NO 17) (SNRLDGKVGIITGGTLGIGLAIATKFVEEGAKVMITGLHSDVGEMAAKSV; OTHER INFORMATION: mutant 1/1)”, the Kcat value [1] was 33.3 s⁻¹, the Km [1] was 502 µM and the Kcat value [2] was 33.3 s⁻¹. The Km [2] was 500 µM and 502 µM, the “selectivity (kcat/KM) for NAD+ in comparison with the value for NADP+” value ([2]; kcat/KM NAD+ as percent of kcat/KM NADP+) was 100% and the Kcat value [3] was 166.4 s⁻¹. For the same substance, the Km [3] was 352 µM, the Kcat value [4] was 10.3 s⁻¹ and the Km [4] was 188 µM. The residual activity ([5]; 25 h incubation at 25° C.) was 100%, the residual activity ([5]; 25 h incubation at 30° C.) was 59% and the isoelectric point [6] was 4.85. The “enantioselectivity: isomer of phenylethanol formed” value [7] was “only the (R) isomere of phenyl ethanol”.
“mutant 2/2: L. brevis ADH mutant with exchanges A9G, R38L, H39L, K48M (SEQ ID NO 19) (SNRLDGKVGIITGGTLGIGLAIATKFVEEGAKVMITGLLSDVGEKAAMSV; OTHER INFORMATION: mutant 2/2)” gave a Kcat value [1] of 30.8 s⁻¹, a Km [1] of 143 µM and a Kcat value [2] of 23.2 s⁻¹. The Km [2] was 960 µM and 955 µM, the Kcat value [3] was 101.1 s⁻¹ and the Km [3] was 370 µM. The Kcat value [4] was 33.6 s⁻¹, the Km [4] was ~70 µM and 70 µM and the “activity at 60° C. relative to optimum” value ([8]; NADH, 60° C.) was 70%. The “activity at 50° C. relative to optimum” value ([8]; NADPH, measured at 50° C.) was 95%, the residual activity ([5]; storage 6 h at 30° C.) was 67% and the residual activity ([5]; storage 6 h at 37° C.) was 7%. For the same substance, the “activity at pH 8.0 compared with optimum” value ([9]; NAD+) was 61%, the “activity at pH 8.0 compared with optimum” value ([9]; NADP+) was 77% and the “activity at pH 7.0 compared with optimum” value ([9]; reduction of acetophenone with NADH, pH 7.0) was 6%. The residual activity ([10]; 6 h storage at pH 7.0) was 100%, the residual activity ([10]; 6 h storage at pH 8.5) was 58% and the isoelectric point [6] was “about 4.47”. The “enantioselectivity: isomer of phenylethanol formed” value [7] was “the (R) isomere of phenylethanol only”.
In the case of “mutant 2/3: L. brevis ADH mutant with exchanges A9G, G37D, R38L, K48M (SEQ ID NO 20)”, the activity [11, 12] is reported as 10.8 U/ml, the specific activity [11, 12] is reported as 1.1 U/mg and the activity ([11]; oxidation of phenyl ethanol with NADP+) is reported as “no activity”. It also gave an activity [11, 13] of 4.61 U/ml, a specific activity [11, 13] of 0.47 U/mg and an activity [11, 14] of 0.318 U/ml. The specific activity [11, 14] was 0.032 U/mg.
